According to US12286631B2, “Riboswitch modulated gene therapy for retinal diseases” (The Medical College of Wisconsin, Inc., priority 2017, dated 2025):

Legend:
[1] = tested on: HEK293T cells; assay: Optimal copy number of riboswitch, GFP plasmids, fluorescence plate reader; format: cell-based; settings: plasmids with 0-4 copies of riboswitch, GFP transgene
Description: The protocol for both assays are outlined in FIGS. 8A and 8B. For determining optimal copy numbers, plasmids containing 0-4 copies of each riboswitch were created with the transgene as green fluorescence protein (GFP) for readout. HEK293T cells were plated in a 12-well plate and on day 2 transfected with 1 μg of each plasmid DNA. On day 3, cells were observed by fluorescent microscopy (excitation 467-498 nm) and fluorescence was quantified using a plate reader (488 nm excitation 520 nm emission).
As depicted in FIG. 9A, L2Bulge18tc riboswitch was one ON-type riboswitch tested. The cells were treated with 0 μM, 25 μM, 50 μM, 75 μM, and 100 µM of tetracycline (ligand), with the fluorescent microscopy results shown in FIG. 9D.
L2Bulge 9 was also tested (using activating ligand Theophylline), and the optimal copy number was determined to be 3.

[2] = tested on: HEK293T cells; assay: Dynamic range / dose-responsiveness to activating ligand, firefly luciferase constructs; format: cell-based; settings: for Dynamic range compared with similar riboswitches known in the art: 0-100 μM respective ligand, with target miRNA sequence; for Dynamic Range: optimal copy number, 0-100 μM activating ligand; for Dynamic Range / Response to ligand in cell culture (firefly luminescence): HEK293T cells; for Response to ligand in cell culture (firefly luminescence): dual luciferase assay, tetracycline or theophylline
Description: The riboswitches were evaluated in HEK293T cells to determine optimal copy number (largest dynamic range) and dose-responsiveness to its activating ligand using a dual luciferase assay. The ligand used were tetracycline and theophylline.
For determining dynamic range, constructs containing firefly luciferase containing the optimal copy number of the riboswitch were made. HEK293T cells were plated on day 1, and transfected on day 2 with 1 μg of plasmid DNA. Cells were treated with 0-100 μM of the ligand corresponding to the riboswitch and the luminescence was quantified on day 3 using plate reader.
Experiments as described in Example 2A were also carried out using the newly designed Tet-SLIM and Theo-SLIM switches including target miRNA sequence, as depicted in FIGS. 12A and 13A, respectively.

[3] = tested on: mouse retina; assay: In vivo GFP fluorescence (cSLO) after intravitreal rAAV2 GFP-riboswitch cassette and ligand gavage; parameters: species or system C57Bl/6j mice; settings: delivered to the mouse retina using a rAAV2 vector
Description: Next, the optimal copy number of each riboswitch was cloned into a rAAV GFP reporter cassette and packaged in an AAV2 capsid. Each GFP-riboswitch cassette was injected intravitreally into C57Bl/6j mice in combination with an AAV2 control vector harboring a non-inducible mCherry reporter gene. Four weeks post-injection, mCherry and GFP fluorescence levels were quantified in vivo using a custom ‘Multiline’ confocal scanning laser ophthalmoscope (cSLO). Mice subsequently received a dose of 1000 mg/kg of its activating ligand (tetracycline, theophylline), and fluorescence levels were quantified 2 and 24 hours post-gavage.

B1: Theo-SLIM: theophylline-responsive self-targeting ligand inactivating microRNA (SLIM) switch, SEQ ID NO: 1 (nucleic acid)
chain: CGTATCAGCAGGTCCCATAAGCTTTCGACAATTAACGAGTGTGTACTCGTTCTATCATCTCACAGTTAAAGTCGGGAGAATAGGAGCCGCACGGGTCCTGATACCAGCGTGAGCGGAGAGAATCTTCTTTCTGTCTATTAGTGAAGCCACAGATGTAATAGACAGAAAGAAGATTCTCTCCGCCTACGCCCTTGGCAGCACCGTACGGTTCGATC
- Optimal Copy number [1]: 1
- Dynamic range compared with similar riboswitches known in the art [2]: increased dynamic range
- Dynamic Range [2]: 10.9-fold

B2: L2Bulge18tc: Tetracycline ON switch riboswitch, SEQ ID NO: 12 (nucleic acid)
chain: CTCGAGGCGATCGCAAACAAACAAAGCTGTCACCGGATGTGCTTTCCGGTCTGATGAGTCCGTTGTCCAAAACATACCAGATTTCGATCTGGAGAGGTGAAGAATTCGACCACCTGGACGAGGACGGAGGACGAAACAGCAAAAAGAAAAATAAAAATTAATTAATCTTGGGCCC
- Optimal Copy number [1]: 3
- Response to ligand in cell culture (firefly luminescence) [2]: responded to a ligand
- Dynamic Range [2]: 4.3-fold
- Response to ligand in vivo [3]: responded to a ligand

B3: GuaM8HDV: Guanine OFF switch riboswitch, SEQ ID NO: 14 (nucleic acid)
chain: ATGGCCGGCATGGTCCCAGCCTCCTCGCTGGCGCCGGCTGGGCAATGCTATAATCGCGTGGATATGGCACGCAAGTTTCTACCGGGCACCGTAAATGTCCGACTAGTAGCGAATGGGACGCACAAATCTCTCTAG
- Response to ligand in cell culture (firefly luminescence) [2]: responded to a ligand
- Response to ligand in vivo [3]: responded to a ligand

B4: K19: Tetracycline ON switch riboswitch, SEQ ID NO: 15 (nucleic acid)
chain: CAAACAAACAAAGGCGCGTCCTGGATTCGTGGTAAAACATACCAGATTTCGATCTGGAGAGGTGAAGAATACGACCACCTGTAGTATCCAGCTGATGAGTCCCAAATAGGACGAAACGCGCTAAACAAACAAAC
- Optimal Copy number [1]: 1
- Response to ligand in cell culture (firefly luminescence) [2]: responded to a ligand
- Dynamic Range [2]: 1.5-fold
- Response to ligand in vivo [3]: responded to a ligand

B5: Theo6HDV: Theophylline OFF switch riboswitch, SEQ ID NO: 13 (nucleic acid)
chain: ATGGCCGGCATGGTCCCAGCCTCCTCGCTGGCGCCGGCTGGGCAACCACATACCAGCCGAAAGGCCCTTGGCAGGTGGGCGAATGGGACGCACAAATCTCTCTAGCTTCCCAGAGAGAAGCGAGAGAAAAGTGGCTCTC
- Response to ligand in cell culture (firefly luminescence) [2]: responded to a ligand
- Response to ligand in vivo [3]: responded to a ligand

B6: L2Bulge9: Theophylline-responsive riboswitch, SEQ ID NO: 11 (nucleic acid)
chain: CTCGAGGCGATCGCAAACAAACAAAGCTGTCACCGGATGTGCTTTCCGGTCTGATGAGTCCGTTGTCCAATACCAGCATCGTCTTGATGCCCTTGGCAGTGGATGGGGACGGAGGACGAAACAGCAAAAAGAAAAATAAAAATTTTTTTTTTAATTAATCTTGGGCCC
- Optimal Copy number [1]: 3
- Response to ligand in cell culture (firefly luminescence) [2]: responded to a ligand
- Dynamic Range [2]: 1.7-fold
- Response to ligand in vivo [3]: responded to a ligand

B7: Tet-SLIM: tetracycline-responsive self-targeting ligand inactivating microRNA (SLIM) switch, SEQ ID NO: 17 (nucleic acid)
chain: CTAGCACGGGTCCCTAAAACATACCGTGAGCGCGAAAGCGCCCCCATTTTGAGTTAGTGAAGCCACAGATGTAACTCAAAATGGGGGCGCTTTCCCGCCTACGGAGAGGTGAAGAATACGACCACCTAGAAGCTTATTGGTACATGATAACACCCCAAAATCGAAGCACTTCAAAAACACCCCAAAATCGAAGCACTTCAAAAACACCCCAAAATCGAAGCACTTCAAAAACACCCCAAAATCGAAGCACTTCAGTCTCAGGCATCGTACGATGTCGACCTGCAGG
- Optimal Copy number [1]: 1
- Dynamic range compared with similar riboswitches known in the art [2]: increased dynamic range
- Dynamic Range [2]: 2.3-fold
